Measured values from patent US20250297032A1 (CONCEPT TO MEDICINE BIOTECH, published 2025).
Positions count from the first letter of the chain named.

B1: G14 (antibody, V domains shown)
VH: QVQLLESGGGVVQPGRSLRLSCAASGFTFSSYAMHWVRQAPGKGLEWVAFISHDGNRNSYADSVRGRFTISRDNSKNTLYLQMNSLRAEDTAVYYCARDLGYYNGFSYWGQGTLVTVSA
VL: DIVMTQSPSSVSASVGDRVTITCRASQGISSWLAWYQQKPGKAPKLLIYAASSLQSGVPSRFSGSGSGTDFTLTISSLQPEDFATYYCQQANSFPPTFGPGTKVDIK
notes: Full human antibody from a Fab phage library; Tested as a mAb (detected with anti-human IgG, captured on Protein A); also called FAP-G14; FAP-G14-Bio (biotin-conjugated form)
B2: J40 (antibody, V domains shown)
VH: EVQLLESGGGLVQPGGSLRLSCAASGFTFSSYAMSWVRQAPGKGLEWVSAISGSGGSTYYADSVKGRFTISRDNSKNTLYLQMNSLRTDDTAVYYCARDLTTSTGWESWGQGTLVTVSA
VL: B1 VL with D1N, V3Q, P100Q, V104L, D105E
notes: Tested as a mAb; also called FAP-J40; FAP-J40-Bio (biotin-conjugated form)
B3: I37 (antibody, V domains shown)
VH: QLQLVESGGGLVQPGGSLRLSCAASGFTFSSYAMSWVRQAPGKGLEWVSAISGSGGSTYYADSVKGRFTISRDNSKNTLYLQMNSLRAEDTAVYYCARDKPWGGSFDYWGQGTLVTVSA
VL: B1 VL with V3Q, M4L, V11L, P96V
notes: Tested as a mAb; also called FAP-I37
B4: I30 (antibody, V domains shown)
VH: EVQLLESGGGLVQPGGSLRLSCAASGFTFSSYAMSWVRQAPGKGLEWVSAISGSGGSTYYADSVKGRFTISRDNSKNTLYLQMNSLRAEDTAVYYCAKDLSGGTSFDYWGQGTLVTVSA
VL: B1 VL with D1A, V3R, M4L, P100G, D105E
notes: Tested as a mAb; also called 130; FAP-I30

These binders were tested against T1, human FAPα-His tag (Sino biological) (human, UniProt Q12884 26-760) (assay: competitive ELISA on coated human FAPα; competitor (detected): FAP-I30-Bio).
T1 construct: Bought protein; also called human FAPα-His protein; not shown: His tag
T1 sequence (looked up): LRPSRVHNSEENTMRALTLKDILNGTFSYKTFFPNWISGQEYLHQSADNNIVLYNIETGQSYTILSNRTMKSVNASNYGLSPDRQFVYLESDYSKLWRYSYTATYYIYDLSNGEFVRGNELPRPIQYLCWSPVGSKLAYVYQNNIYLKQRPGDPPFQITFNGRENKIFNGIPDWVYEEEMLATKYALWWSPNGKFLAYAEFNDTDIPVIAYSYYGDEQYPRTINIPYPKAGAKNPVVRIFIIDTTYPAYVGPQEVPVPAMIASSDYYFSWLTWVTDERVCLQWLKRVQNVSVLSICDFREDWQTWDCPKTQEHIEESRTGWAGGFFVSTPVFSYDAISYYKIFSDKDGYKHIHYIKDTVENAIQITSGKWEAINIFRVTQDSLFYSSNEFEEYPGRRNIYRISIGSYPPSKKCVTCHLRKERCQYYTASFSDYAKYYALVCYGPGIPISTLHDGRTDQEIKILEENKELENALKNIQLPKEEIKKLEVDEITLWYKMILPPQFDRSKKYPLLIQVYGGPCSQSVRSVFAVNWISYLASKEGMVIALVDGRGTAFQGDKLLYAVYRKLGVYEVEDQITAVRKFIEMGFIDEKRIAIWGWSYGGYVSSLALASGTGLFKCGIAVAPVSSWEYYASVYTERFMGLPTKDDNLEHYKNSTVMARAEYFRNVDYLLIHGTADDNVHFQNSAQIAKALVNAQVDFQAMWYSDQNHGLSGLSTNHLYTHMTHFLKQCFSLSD
Experimental: (§1) Briefly, microtiter plates were coated with human FAPα proteins at 0.5 μg/ml in PBS, 100 μl/well at 4° C. overnight, then blocked with 150 μl/well of 1% BSA. Serial dilutions of chimeric antibodies as well as biotin-conjugated reference mAb were added to each well and incubated for 1 hour at RT. The plates were washed with PBS/Tween and then incubate with streptavidin-HRP for 15 mins at RT. After washing, the plates were developed with TMB substrate and analyzed by spectrophotometer at OD 450 nm. According to the competition ability to reference mAbs (Benchmark, or “BMK”), all tested FAPα mAbs binds to the similar epitope as shown in Table 5.
With B1 the “OD 450 nm” value was 0.241 OD 450 nm. For B2, the “OD 450 nm” value was 0.218 OD 450 nm. In the case of B3, the “OD 450 nm” value is reported as 0.239 OD 450 nm. B4 was tested, and the “OD 450 nm” value was 0.143 OD 450 nm.

The binders below were run against T1, human FAPα-His tag (Sino biological) (assay: competitive ELISA on coated human FAPα; biotinylated mAb alone, no competing Ab (row '0')).
Experimental: as §1
For B1, the “OD 450 nm” value was 2.15 OD 450 nm. In the case of B2, the “OD 450 nm” value is reported as 1.2 OD 450 nm. For B3, the “OD 450 nm” value was 1.72 OD 450 nm. With B4 the “OD 450 nm” value was 1.49 OD 450 nm.

These binders were tested against T1, human FAPα-His tag (Sino biological) (assay: competitive ELISA on coated human FAPα; competitor (detected): FAPα (BMK)-Bio).
Experimental: as §1
In the case of B1, the “OD 450 nm” value is reported as 0.399 OD 450 nm. In the case of B2, the “OD 450 nm” value is reported as 0.343 OD 450 nm. In the case of B3, the “OD 450 nm” value is reported as 0.46 OD 450 nm. With B4 the “OD 450 nm” value was 0.151 OD 450 nm.

Each binder was assayed against T2, human FAPα on CHO-K1-hFAPα cells (human, UniProt Q12884 1-760) (assay: flow cytometry on CHO-K1-hFAPα cells).
T2 construct: whole, on cells; also called cell-surface FAPα
T2 sequence (looked up): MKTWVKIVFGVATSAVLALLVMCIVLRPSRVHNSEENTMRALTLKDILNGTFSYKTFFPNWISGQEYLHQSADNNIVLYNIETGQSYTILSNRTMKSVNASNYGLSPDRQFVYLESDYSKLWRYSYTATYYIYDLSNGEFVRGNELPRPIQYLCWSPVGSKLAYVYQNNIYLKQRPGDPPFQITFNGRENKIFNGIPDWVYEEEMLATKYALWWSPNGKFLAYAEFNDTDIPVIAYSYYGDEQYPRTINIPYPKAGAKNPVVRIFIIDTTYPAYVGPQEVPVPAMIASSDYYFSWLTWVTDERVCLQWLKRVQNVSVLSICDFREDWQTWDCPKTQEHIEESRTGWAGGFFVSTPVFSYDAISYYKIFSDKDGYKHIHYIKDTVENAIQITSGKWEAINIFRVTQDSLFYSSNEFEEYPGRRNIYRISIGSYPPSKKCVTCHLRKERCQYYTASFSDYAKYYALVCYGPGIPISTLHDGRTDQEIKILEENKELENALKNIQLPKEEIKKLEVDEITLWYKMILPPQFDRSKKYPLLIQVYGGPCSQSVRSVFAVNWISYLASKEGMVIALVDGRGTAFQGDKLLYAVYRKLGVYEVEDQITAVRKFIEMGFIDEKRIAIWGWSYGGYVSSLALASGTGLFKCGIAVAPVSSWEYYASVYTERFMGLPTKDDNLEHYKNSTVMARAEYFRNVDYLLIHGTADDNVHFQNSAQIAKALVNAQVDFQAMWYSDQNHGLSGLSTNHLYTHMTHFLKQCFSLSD
Experimental: (§2) To evaluate the cell-based binding property to human FAPα, the tested antibodies were analyzed for their binding to CHO-K1-hFAPα by FACS. A total number of 1×10⁵ CHO-K1-hFAPα cells in each well were incubated with 4-fold serial diluted antibodies starting from 3 μg/ml for 30 minutes at 4° C. in FACS buffer. After wash by FACS buffer, PE conjugated-anti-human IgG antibody was added to each well and incubated at 4° C. for 30 minutes. After wash, MFI of PE was evaluated by MACSQuant Analyzer 16.
In the case of B1, the EC50 is reported as 0.073 ng/mL. B2 gave an EC50 of 0.025 ng/mL. Work on B3 yielded an EC50 of 0.057 ng/mL. For B4, the EC50 was 0.08 ng/mL.

These binders were tested against T2, human FAPα on CHO-K1-hFAPα cells (assay: flow cytometry on CHO-K1-hFAPα cells (MFI of PE)).
Parameters: unit not given beside the values
Experimental: as §2
B1 was tested, and the Cmax was 515. B2 gave a Cmax of 381. With B3 the Cmax was 465. Binder B4 has a Cmax of 455.

The binders below were run against T1, human FAPα-His tag (Sino biological) (assay: competitive ELISA on coated human FAPα; competitor (detected): FAP-J40-Bio).
Experimental: as §1
For B1, the “OD 450 nm” value was 0.293 OD 450 nm. B2 was tested, and the “OD 450 nm” value was 0.261 OD 450 nm. With B3 the “OD 450 nm” value was 0.314 OD 450 nm. With B4 the “OD 450 nm” value was 0.16 OD 450 nm.

These binders were tested against T1, human FAPα-His tag (Sino biological) (assay: ELISA, coated human FAPα-His).
Experimental: Briefly, microtiter plates were coated with human FAPα-His protein at 0.5 ug/ml in PBS, 100 μl/well at 4° C. overnight, then blocked with 150 μl/well of 1% BSA. Three-fold dilutions of tested antibodies starting from 1 μg/ml were added to each well and incubated for 1 hour at 37° C. The plates were washed with PBS/Tween and then incubated with Anti-Human IgG (H&L) (GOAT) Antibody Peroxidase Conjugated for 30 mins at 37° C. After washing, the plates were developed with TMB substrate and analyzed by spectrophotometer at OD 450 nm. […] FAP-4B9 clone from Roche was served as positive control which labeled as FAPα-BMK.
B1 showed an EC50 of 4.64 ng/mL. B2 gave an EC50 of 3.87 ng/mL. B3 gave an EC50 of 5.4 ng/mL. B4 was tested, and the EC50 was 3.42 ng/mL.

The binders below were run against T1, human FAPα-His tag (Sino biological) (assay: competitive ELISA on coated human FAPα; competitor (detected): FAP-G52-Bio).
Experimental: as §1
In the case of B1, the “OD 450 nm” value is reported as 0.195 OD 450 nm. With B2 the “OD 450 nm” value was 0.206 OD 450 nm. For B3, the “OD 450 nm” value was 0.18 OD 450 nm. B4 was tested, and the “OD 450 nm” value was 0.146 OD 450 nm.
